In assay [1] the target is Native, cytoplasmic actin from Acanthamoeba castellanii, monomeric (Acanthamoeba castellanii). Put plainly: FP.
Assay [2] addresses T1, WAVE1 PRD[B] (human, UniProt Q92558 277-488, C296 | C407, Texas Red maleimide (KCK variants) or Alexa 546 maleimide (C variants) on the introduced cysteine). Put plainly: AUC.
In assay [3] the target is WAVE1 PRD[E] (human, UniProt Q92558 277-488, C296 | C407, Texas Red maleimide (KCK variants) or Alexa 546 maleimide (C variants) on the introduced cysteine). Description: AUC.
Assay [4] deals with WAVE1 PRD[A] (human, UniProt Q92558 277-488, C296 | C407, Texas Red maleimide (KCK variants) or Alexa 546 maleimide (C variants) on the introduced cysteine). Description: AUC.
Assay [5] concerns the target WAVE1 PRD[C] (human, UniProt Q92558 277-488, C296 | C407, Texas Red maleimide (KCK variants) or Alexa 546 maleimide (C variants) on the introduced cysteine). Description: AUC.
For assay [6], the target named is WAVE1 PRD[D] (human, UniProt Q92558 277-488, C296 | C407, Texas Red maleimide (KCK variants) or Alexa 546 maleimide (C variants) on the introduced cysteine). Description: AUC.
Assay [7] addresses WAVE1 PRD [Null] (human, UniProt Q92558 277-488, C296 | C407, Texas Red maleimide (KCK variants) or Alexa 546 maleimide (C variants) on the introduced cysteine). Description: AUC.
Assay [8] has as its target WAVE1 PRD[F] (human, UniProt Q92558 277-488, C296 | C407, Texas Red maleimide (KCK variants) or Alexa 546 maleimide (C variants) on the introduced cysteine). Put plainly: AUC.
The target of assay [9] is T1, WAVE1 PRD[B]. Description: AUC; 2:1 binding model, Kd1 (fit).

T1 sequence (Q92558 other isoform, or with tags, fused parts or gaps, change not shown): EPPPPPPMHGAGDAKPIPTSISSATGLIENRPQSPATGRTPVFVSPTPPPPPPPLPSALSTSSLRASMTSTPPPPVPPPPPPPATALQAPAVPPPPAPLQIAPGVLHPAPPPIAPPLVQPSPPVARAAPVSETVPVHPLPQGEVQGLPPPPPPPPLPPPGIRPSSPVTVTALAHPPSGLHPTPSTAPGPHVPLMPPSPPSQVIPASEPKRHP
Chain of WAVE1 PRD[A] (Q92558 other isoform, or with tags, fused parts or gaps, change not shown): as above
Chain of WAVE1 PRD[C] (Q92558 other isoform, or with tags, fused parts or gaps, change not shown): as above
Chain of WAVE1 PRD[D] (Q92558 other isoform, or with tags, fused parts or gaps, change not shown): as above
Chain of WAVE1 PRD[F] (Q92558 other isoform, or with tags, fused parts or gaps, stated change not applied): as the sequence (Q92558 other isoform, or with tags, fused parts or gaps, change not shown) above
Chain of WAVE1 PRD[E] (Q92558 other isoform, or with tags, fused parts or gaps, change not shown): as above
Chain of WAVE1 PRD [Null] (Q92558 other isoform, or with tags, fused parts or gaps, change not shown): as above

B1: WAVE1 WCA, unlabeled, soluble (domain or fragment)
chain: STLPVISDARSVLLEAIRKGIQLRKVEEQREQEAKHERIENDVATILSRRIAVEYSDSEDDSEFDEVDWLE
B1 yielded a Kd in assay [1] of 0.068 µM.

B2: Alexa488-labeled WAVE1 WCA (domain or fragment)
chain: SCLPVISDARSVLLEAIRKGIQLRKVEEQREQEAKHERIENDVATILSRRIAVEYSDSEDDSEFDEVDWLE
modifications: Alexa488-maleimide on Cys490
Turning to B2, binding in assay [1] was characterised by a dissociation constant (Kd) of 0.029 µM.

B3: Mouse profilin 2a (natural protein)
chain: MAGWQSYVDNLMCDGCCQEAAIVGYCDAKYVWAATAGGVFQSITPVEIDMIVGKDREGFFTNGLTLGAKKCSVIRDSLYVDGDCTMDIRTKSQGGEPTYNVAVGRAGRVLVFVMGKEGVHGGGLNKKAYSMAKYLRDSGF
On to B3, for which the Kd came out at 2 µM in [2]; 182 µM in assay [3]; 51 µM in assay [4]; 12 µM in [5]; 145 µM in assay [6]; 138 µM in assay [7]. Moreover, the Kd in assay [8] is 4 µM; in assay [9], 2.07 µM.

A word on the Kd: it is a measure of binding affinity in units of concentration. Low values mean a tighter complex, high ones a looser complex.

(Values after PMC5753033 (2017).)
